Experimental data: patent US20260285962 (published 2026)

Columns and labels:
[1] = molecular target: T1, Human Activin A-Fc (human); assay: BLI, bivalent
T1 chain: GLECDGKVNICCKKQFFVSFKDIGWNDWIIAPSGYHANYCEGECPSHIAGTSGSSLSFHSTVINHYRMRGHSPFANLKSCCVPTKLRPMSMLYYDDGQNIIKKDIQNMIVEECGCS

[2] = molecular target: Human GDF8 (human, UniProt O14793); assay: BLI, bivalent
[3] = molecular target: T2, BMP9 (UniProt Q9UK05); assay: BLI, bivalent
T2 chain: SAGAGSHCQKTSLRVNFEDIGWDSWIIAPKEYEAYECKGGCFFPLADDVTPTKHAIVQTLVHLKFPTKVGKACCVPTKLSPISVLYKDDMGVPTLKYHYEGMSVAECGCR

[4] = molecular target: T3, Human GDNF (human, UniProt P39905); assay: BLI, bivalent
T3 chain: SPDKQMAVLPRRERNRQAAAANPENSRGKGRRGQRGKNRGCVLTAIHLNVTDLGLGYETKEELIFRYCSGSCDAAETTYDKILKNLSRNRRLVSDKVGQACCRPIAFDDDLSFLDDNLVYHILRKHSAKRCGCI

[5] = molecular target: T4, Human GDF10 (human, UniProt P55107); assay: BLI, bivalent
T4 chain: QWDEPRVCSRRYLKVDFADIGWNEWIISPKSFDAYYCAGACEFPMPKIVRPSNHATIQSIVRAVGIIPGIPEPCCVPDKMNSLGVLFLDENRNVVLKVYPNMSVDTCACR

[6] = molecular target: T5, Human GDF11 (human, UniProt O95390); assay: BLI, bivalent
T5 chain: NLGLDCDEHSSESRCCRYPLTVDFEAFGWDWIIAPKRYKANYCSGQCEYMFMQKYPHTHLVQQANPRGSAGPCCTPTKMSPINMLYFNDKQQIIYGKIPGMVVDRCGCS

[7] = molecular target: T6, Human Activin B (human); assay: BLI, bivalent
T6 chain: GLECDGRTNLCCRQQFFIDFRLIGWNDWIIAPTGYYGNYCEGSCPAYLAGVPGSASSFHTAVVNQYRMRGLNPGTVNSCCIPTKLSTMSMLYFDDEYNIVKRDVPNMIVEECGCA

[8] = molecular target: T7, BMP10 (UniProt O95393); assay: BLI, bivalent
T7 chain: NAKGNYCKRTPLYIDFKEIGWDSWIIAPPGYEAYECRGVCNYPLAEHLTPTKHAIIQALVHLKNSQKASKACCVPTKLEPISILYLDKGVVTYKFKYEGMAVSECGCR

[9] = molecular target: T8, Human Follistatin 300 (human, UniProt P19883); assay: BLI, bivalent
T8 chain: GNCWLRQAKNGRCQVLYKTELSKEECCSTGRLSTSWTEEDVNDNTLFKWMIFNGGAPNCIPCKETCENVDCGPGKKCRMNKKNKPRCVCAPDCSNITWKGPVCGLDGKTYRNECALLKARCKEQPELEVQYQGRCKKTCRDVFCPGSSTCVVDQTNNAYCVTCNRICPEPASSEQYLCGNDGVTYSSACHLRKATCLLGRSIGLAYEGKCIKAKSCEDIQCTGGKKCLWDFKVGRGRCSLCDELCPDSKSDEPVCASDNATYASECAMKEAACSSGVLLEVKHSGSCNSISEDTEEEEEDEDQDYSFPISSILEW

[10] = molecular target: T9, GDF15-Fc (UniProt Q99988); assay: BLI, bivalent
T9 chain: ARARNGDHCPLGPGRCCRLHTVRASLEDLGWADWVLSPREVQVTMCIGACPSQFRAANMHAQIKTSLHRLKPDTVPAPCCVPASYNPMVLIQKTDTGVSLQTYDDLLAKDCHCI

[11] = molecular target: T1, Human Activin A-Fc; assay: BLI, monovalent
[12] = molecular target: T10, Human Activin A (biotinylated) (human); assay: SPR, 25C, monovalent
T10 chain: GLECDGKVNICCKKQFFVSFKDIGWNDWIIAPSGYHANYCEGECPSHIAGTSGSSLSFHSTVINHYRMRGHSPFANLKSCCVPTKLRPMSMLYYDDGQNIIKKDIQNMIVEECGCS

[13] = molecular target: T4, Human GDF10; assay: BLI, bivalent
[14] = molecular target: T5, Human GDF11; assay: BLI, bivalent

Human GDF8, sequence (O14793 267-375): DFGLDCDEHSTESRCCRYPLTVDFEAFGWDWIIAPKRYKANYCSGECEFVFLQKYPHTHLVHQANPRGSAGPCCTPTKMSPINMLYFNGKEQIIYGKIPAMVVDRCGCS

Row | Binder | Kd [1] | binding result [2] | binding result [3] | binding result [4] | binding result [5] | binding result [6] | Kd [7] | binding result [8] | binding result [9] | binding result [10] | Kd [11] | Kd [12] | Kd [13] | Kd [14]
1 | Clone A Fab (antibody, V domains shown) VH: QLQLQESGPGLVKPSETLSLTCTVSGGSISSSSYYWGWIRQPPGKGLEWIGSISYSGSTYYNPSLKSRVTISVDTSKNQFSLKLSSVTAADTAVYYCAREGYDSYSYDVWGQGTMVTVSS VL: EIVLTQSPATLSVSPGERATLSCRASQSVGSNLAWYQQKPGQAPRLLIYGASTRATGIPARFSGSGSGTEFTLTISSLQSEDFAVYYCQQYNFYPPITFGGGTKVEIK |  |  |  |  |  |  |  |  |  |  | 3.55 nM | 1.64 nM |  | 
2 | Clone C Fab (antibody, V domains shown) VH: QLQLQESGPGLVKPSETLSLTCTVSGGSISSYDPYWGWIRQPPGKGLEWIGSISYSGSTLYNPSLKSRVTISVDTSKNQFSLKLSSVTAADTAVYYCAREVSYLGSRRYGMDVWGQGTTVTVSS VL: not shown |  |  |  |  |  |  |  |  |  |  | 0.963 nM | 0.0832 nM |  | 

Second part, the binder after the results:

Row | Kd [1] | binding result [2] | binding result [3] | binding result [4] | binding result [5] | binding result [6] | Kd [7] | binding result [8] | binding result [9] | binding result [10] | Kd [11] | Kd [12] | Kd [13] | Kd [14] | Binder
3 | 0.545 nM | no binding | no binding | no binding | no binding | no binding | 0.766 nM | no binding | no binding | no binding |  |  |  |  | Clone B IgG (antibody, V domains shown) VH: QLQLQESGPGLVKPSETLSLTCTVSGGSISSQQYYWGWIRQPPGKGLEWIGSISYAASTYYNPSLKSRVTISVDTSKNQFSLKLSSVTAADTAVYYCAREGYDSYSYDVWGQGTMVTVSS VL: EIVLTQSPATLSVSPGERATLSCRASQSVGSNLAWYQQKPGQAPRLLIYGASTRATGIPARFSGSGSGTEFTLTISSLQSEDFAVYYCQQYNFYPPITFGGGTKVEIK
4 |  |  |  |  |  |  |  |  |  |  | 2.1 nM | 0.903 nM |  |  | Clone B Fab (antibody, V domains shown) VH: QLQLQESGPGLVKPSETLSLTCTVSGGSISSQQYYWGWIRQPPGKGLEWIGSISYAASTYYNPSLKSRVTISVDTSKNQFSLKLSSVTAADTAVYYCAREGYDSYSYDVWGQGTMVTVSS VL: EIVLTQSPATLSVSPGERATLSCRASQSVGSNLAWYQQKPGQAPRLLIYGASTRATGIPARFSGSGSGTEFTLTISSLQSEDFAVYYCQQYNFYPPITFGGGTKVEIK
5 | 0.661 nM | no binding | no binding | no binding | no binding | no binding | 0.76 nM | no binding | no binding | no binding |  |  |  |  | Clone A IgG (antibody, V domains shown) VH: QLQLQESGPGLVKPSETLSLTCTVSGGSISSSSYYWGWIRQPPGKGLEWIGSISYSGSTYYNPSLKSRVTISVDTSKNQFSLKLSSVTAADTAVYYCAREGYDSYSYDVWGQGTMVTVSS VL: EIVLTQSPATLSVSPGERATLSCRASQSVGSNLAWYQQKPGQAPRLLIYGASTRATGIPARFSGSGSGTEFTLTISSLQSEDFAVYYCQQYNFYPPITFGGGTKVEIK
6 | 0.552 nM | no binding | no binding | no binding |  |  | 0.861 nM | no binding | no binding | no binding |  |  | 25.8 nM | 8.41 nM | Clone C IgG (antibody, V domains shown) VH: QLQLQESGPGLVKPSETLSLTCTVSGGSISSYDPYWGWIRQPPGKGLEWIGSISYSGSTLYNPSLKSRVTISVDTSKNQFSLKLSSVTAADTAVYYCAREVSYLGSRRYGMDVWGQGTTVTVSS VL: not shown
